PMC3877283, “Development of Novel Radiogallium-Labeled Bone Imaging Agents Using Oligo-Aspartic Acid Peptides as Carriers” (PLoS ONE, 2013)
Where two headings read alike, the source gives them in different places. Peptide text beside a SMILES is read from it. * marks the point of attachment. DOTA = O=C(O)CN1CCN(CC(=O)O)CCN(CC(=O)*)CCN(CC(=O)O)CC1

Experiment: Biodistribution experiments in normal mice
Assay type: in vivo, ddY mice
Conditions: for F/B ratio (Femur:blood ratio) / tissue uptake dose at 1 h / tissue uptake dose at 3 h / tissue uptake dose at 10 min: male ddY mice, no pretreatment, mean (SD) for four or five animals; for tissue uptake dose at 1 h / tissue uptake dose at 3 h / tissue uptake dose at 10 min: mouse, in vivo, iv, 37 kBq/100 uL, total radioactivity
Description: Experiments with animals were conducted in strict accordance with the Guidelines for the Care and Use of Laboratory Animals of Kanazawa University. The animal experimental protocols used were approved by the Committee on Animal Experimentation of Kanazawa University (Permit Number: AP-132633). Biodistribution experiments were performed after an intravenous administration of each diluted tracer solution (37 kBq/100 µL) to 6-week-old male ddY mice (27–32 g, Japan SLC, Inc., Hamamatsu, Japan). To investigate the effect of an excess amount of bisphosphonate on biodistribution, alendronate (20 mg/kg) was intravenously administered to mice 1 minute before the intravenous injection of ^67Ga-DOTA-(Asp)14 or ^67Ga-DOTA-Bn-SCN-HBP. Four to six mice each were sacrificed by decapitation at 10, 60, and 180 minutes post-injection. Tissues of interest were removed and weighed. Complete left femurs were isolated as representative bone samples, radioactivity was determined using an auto well gamma counter, and counts were corrected for background radiation and physical decay during counting.

For `O=C(O)C[C@H](NC(=O)[C@H](CC(=O)O)NC(=O)[C@H](CC(=O)O)NC(=O)[C@H](CC(=O)O)NC(=O)[C@H](CC(=O)O)NC(=O)[C@H](CC(=O)O)NC(=O)[C@H](CC(=O)O)NC(=O)[C@H](CC(=O)O)NC(=O)[C@H](CC(=O)O)NC(=O)[C@H](CC(=O)O)NC(=O)[C@H](CC(=O)O)NC(=O)CN1CCN(CC(=O)O)CCN(CC(=O)O)CCN(CC(=O)O)CC1)C(=O)O` [67Ga-DOTA-(Asp)11, metal not drawn] ({DOTA}-DDDDDDDDDDD-OH), the “F/B ratio (Femur:blood ratio)” value (10 min after i.v. administration) was 8.71 (0.73), the “F/B ratio (Femur:blood ratio)” value (60 min after i.v. administration) was 156.07 (45.00) and the “F/B ratio (Femur:blood ratio)” value (180 min after i.v. administration) was 501.32 (156.89). For the same molecule, the tissue uptake dose at 1 h (male, ddY, Blood, 60 min after i.v. administration, read-out: Radioactivity in Blood) was 0.11 %ID, the tissue uptake dose at 3 h (male, ddY, Blood, 180 min after i.v. administration, read-out: Radioactivity in Blood) was 0.03 %ID and the tissue uptake dose at 10 min (male, ddY, Bone (complete left femur), 10 min after i.v. administration, read-out: Radioactivity in Bone (Femur)) was 13.1 %ID. It also gave a tissue uptake dose at 1 h (male, ddY, Bone (complete left femur), 60 min after i.v. administration, read-out: Radioactivity in Bone (Femur)) of 16.3 %ID, a tissue uptake dose at 3 h (male, ddY, Bone (complete left femur), 180 min after i.v. administration, read-out: Radioactivity in Bone (Femur)) of 13.9 %ID and a tissue uptake dose at 10 min (male, ddY, Brain, 10 min after i.v. administration, read-out: Radioactivity in Brain) of 0.05 %ID. The tissue uptake dose at 1 h (male, ddY, Brain, 60 min after i.v. administration, read-out: Radioactivity in Brain) was 0.02 %ID, the tissue uptake dose at 3 h (male, ddY, Brain, 180 min after i.v. administration, read-out: Radioactivity in Brain) was 0.01 %ID and the tissue uptake dose at 10 min (male, ddY, Heart, 10 min after i.v. administration, read-out: Radioactivity in Heart) was 0.55 %ID. The tissue uptake dose at 1 h (male, ddY, Heart, 60 min after i.v. administration, read-out: Radioactivity in Heart) was 0.08 %ID, the tissue uptake dose at 3 h (male, ddY, Heart, 180 min after i.v. administration, read-out: Radioactivity in Heart) was 0.02 %ID and the tissue uptake dose at 10 min (male, ddY, Kidney, 10 min after i.v. administration, read-out: Radioactivity in Kidney) was 16 %ID. For the same molecule, the tissue uptake dose at 1 h (male, ddY, Kidney, 60 min after i.v. administration, read-out: Radioactivity in Kidney) was 1.76 %ID, the tissue uptake dose at 3 h (male, ddY, Kidney, 180 min after i.v. administration, read-out: Radioactivity in Kidney) was 0.8 %ID and the tissue uptake dose at 10 min (male, ddY, Large-intestine, 10 min after i.v. administration, read-out: Radioactivity in Large-intestine) was 0.27 %ID. For the same molecule, the tissue uptake dose at 1 h (male, ddY, Large-intestine, 60 min after i.v. administration, read-out: Radioactivity in Large-intestine) was 0.06 %ID, the tissue uptake dose at 3 h (male, ddY, Large-intestine, 180 min after i.v. administration, read-out: Radioactivity in Large-intestine) was 0.13 %ID and the tissue uptake dose at 10 min (male, ddY, Liver, 10 min after i.v. administration, read-out: Radioactivity in Liver) was 0.44 %ID. The tissue uptake dose at 1 h (male, ddY, Liver, 60 min after i.v. administration, read-out: Radioactivity in Liver) was 0.07 %ID, the tissue uptake dose at 3 h (male, ddY, Liver, 180 min after i.v. administration, read-out: Radioactivity in Liver) was 0.05 %ID and the tissue uptake dose at 10 min (male, ddY, Lung, 10 min after i.v. administration, read-out: Radioactivity in Lung) was 1.11 %ID. The tissue uptake dose at 1 h (male, ddY, Lung, 60 min after i.v. administration, read-out: Radioactivity in Lung) was 0.12 %ID, the tissue uptake dose at 3 h (male, ddY, Lung, 180 min after i.v. administration, read-out: Radioactivity in Lung) was 0.04 %ID and the tissue uptake dose at 10 min (male, ddY, Muscle, 10 min after i.v. administration, read-out: Radioactivity in Muscle) was 0.48 %ID. For the same molecule, the tissue uptake dose at 1 h (male, ddY, Muscle, 60 min after i.v. administration, read-out: Radioactivity in Muscle) was 0.13 %ID, the tissue uptake dose at 3 h (male, ddY, Muscle, 180 min after i.v. administration, read-out: Radioactivity in Muscle) was 0.08 %ID and the tissue uptake dose at 10 min (male, ddY, Pancreas, 10 min after i.v. administration, read-out: Radioactivity in Pancreas) was 0.62 %ID. For the same molecule, the tissue uptake dose at 1 h (male, ddY, Pancreas, 60 min after i.v. administration, read-out: Radioactivity in Pancreas) was 0.07 %ID, the tissue uptake dose at 3 h (male, ddY, Pancreas, 180 min after i.v. administration, read-out: Radioactivity in Pancreas) was 0.05 %ID and the tissue uptake dose at 10 min (male, ddY, Small-intestine, 10 min after i.v. administration, read-out: Radioactivity in Small-intestine) was 0.41 %ID. It also gave a tissue uptake dose at 1 h (male, ddY, Small-intestine, 60 min after i.v. administration, read-out: Radioactivity in Small-intestine) of 0.27 %ID, a tissue uptake dose at 3 h (male, ddY, Small-intestine, 180 min after i.v. administration, read-out: Radioactivity in Small-intestine) of 0.05 %ID and a tissue uptake dose at 10 min (male, ddY, Spleen, 10 min after i.v. administration, read-out: Radioactivity in Spleen) of 0.31 %ID. The tissue uptake dose at 1 h (male, ddY, Spleen, 60 min after i.v. administration, read-out: Radioactivity in Spleen) was 0.09 %ID, the tissue uptake dose at 3 h (male, ddY, Spleen, 180 min after i.v. administration, read-out: Radioactivity in Spleen) was 0.04 %ID and the tissue uptake dose at 10 min (male, ddY, Stomach (footnote b), 10 min after i.v. administration, read-out: Radioactivity in Stomach) was 0.21 %ID. The tissue uptake dose at 1 h (male, ddY, Stomach (footnote b), 60 min after i.v. administration, read-out: Radioactivity in Stomach) was 0.18 %ID, the tissue uptake dose at 3 h (male, ddY, Stomach (footnote b), 180 min after i.v. administration, read-out: Radioactivity in Stomach) was 0.04 %ID and the tissue uptake dose at 10 min (Blood, 10 min after i.v. administration (37 kBq/100 µL), gamma counter, read-out: Radioactivity in Blood) was 1.51 %ID. The “accumulation of radioactivity in the femur (in words)” value (normal mice, i.v.) was “higher accumulation”.
